Measurements as given in patent US20170002079A1.

Molecular target: human ST2 on primary human cells (human) (UniProt Q01638)
Experiment: cell-based or functional assay

Chain of human ST2 on primary human cells (human) (Q01638 19-556 A78X, form in doubt): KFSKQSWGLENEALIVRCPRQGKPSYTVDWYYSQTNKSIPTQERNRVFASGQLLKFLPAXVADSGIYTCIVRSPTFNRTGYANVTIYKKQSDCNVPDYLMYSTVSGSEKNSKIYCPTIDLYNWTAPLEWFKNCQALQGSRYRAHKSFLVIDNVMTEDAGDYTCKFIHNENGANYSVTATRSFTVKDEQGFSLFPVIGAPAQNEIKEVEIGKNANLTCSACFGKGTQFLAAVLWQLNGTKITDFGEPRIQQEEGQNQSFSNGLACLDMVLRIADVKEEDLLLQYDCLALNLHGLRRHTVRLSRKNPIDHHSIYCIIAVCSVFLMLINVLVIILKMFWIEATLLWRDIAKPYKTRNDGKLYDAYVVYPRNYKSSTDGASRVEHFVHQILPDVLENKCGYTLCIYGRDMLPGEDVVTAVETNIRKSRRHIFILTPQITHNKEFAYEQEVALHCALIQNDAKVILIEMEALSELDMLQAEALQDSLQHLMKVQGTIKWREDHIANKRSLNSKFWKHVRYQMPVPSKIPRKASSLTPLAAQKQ

IC50 (ug/ml), inhibition of IL-33-dependent IFN-γ release from human NK cells (IL-33 10 ng/mL and IL-12): 0.385 µg/mL
Substance: 97203 (antibody)
